This data set is described as follows: label from the status in PepcDB records.
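Further: failed if final PepcDB status was selected cloned or expressed and not failed if soluble or beyond.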

In the case of “MSCRHGTTRCRSLCDYGGLSMQYVNTCPVLNVEECDRLSFMPYLFGTDFMLAELQVYALAKKWMPGYEGGFWHFIRLPEGGGYMMPDCGRVHLVSSENWFDRTVSADAAGIILTSLAINRRLAAHHDSSNPALTRLYMLRDAQLWNHITFHPECSAIYAALD”, the protein production result is listed as “failed”.
The result for “MSCTNRVPGILMCEIFIRANQRSYSVQARSLRLHGVATSVRLEQLFWDVLEEIAARDGMRVTQLIERLYDELVQYRGEAANFTSFLRVCCLRYQVLQAEGRIPADATVPIRSLDAQAVLRGLPANLYDSRPLG” reads “failed”.
To “MSCYNKALLIGNKVVVILVFLLCLVHSSESLRPLFACDPANGLTRTLRFCRANVPIHVRVQDLLGRLTLQEKIRNLVNNAAAVPRLGIGGYEWWSEALHGISDVGPGAKFGGAFPGATSFPQVITTAASFNQSLWEEIGRVVSDEARAMYNGGVAGLTYWSPNVNILRDPRWGRGQETPGEDPIVAAKYAASYVRGLQGTAAGNRLKVAACCKHYTAYDLDNWNGVDRFHFNAKVTQQDLEDTYNVPFKSCVYEGKVASVMCSYNQVNGKPTCADENLLKNTIRGQWRLNGYIVSDCDSVDVFFNQQHYTSTPEEAAARSIKAGLDLDCGPFLAIFTEGAVKKGLLTENDINLALANTLTVQMRLGMFDGNLGPYANLGPRDVCTPAHKHLALEAAHQGIVLLKNSARSLPLSPRRHRTVAVIGPNSDVTETMIGNYAGKACAYTSPLQGISRYARTLHQAGCAGVACKGNQGFGAAEAAAREADATVLVMGLDQSIEAETRDRTGLLLPGYQQDLVTRVAQASRGPVILVLMSGGPIDVTFAKNDPRVAAIIWAGYPGQAGGAAIANIIFGAANPGGKLPMTWYPQDYVAKVPMTVMAMRASGNYPGRTYRFYKGPVVFPFGFGLSYTTFTHSLAKSPLAQLSVSLSNLNSANTILNSSSHSIKVSHTNCNSFPKMPLHVEVSNTGEFDGTHTVFVFAEPPINGIKGLGVNKQLIAFEKVHVMAGAKQTVQVDVDACKHLGVVDEYGKRRIPMGEHKLHIGDLKHTILVQPQL” belongs “failed”; to “MSDAAISCSWKPFFRELATRLLDYEDRQPELLAALRDASISINHDEGEPLREVDPFTFFSLVLKHTSDATALPLFARVGAALGVQAPSPTDLIGVPWSNPMNAWFFAYRSQRQPGDVPLLWRLARQAVAGILDAQTFEDALKIRKVALPKLTQGLFWLNPERFLALNAVNVPYLQARGLQAAGQVQTLAEYETVLEAAHKLNPDFAALSHRAWLNSQTAALEGNHFPFARYQADAQEFAGDKVKGNLVLDRRYAPLLLDLMAGEWETLKPSRSPYSGREQLAVKVALGGGVKTDGGAFARALLFADDSGFEYVPFSAGLTLEAGLPDGRGDGPRQALQEPARQHTLLTALNAPLPAGLEATLTLNTDFGALFLLPLGPGREAEAAQQLQQYMSGVGRSRRLRVGLSLLPEHLESDKFPELLDAALTYLDALVDLLDGLMRPSEETSTEEIGVPGTRPVAPTPAAFVPVPGVPLNQILYGPPGTGKTYRVVDEALSVLDPAFLSAHPGSEGRAARKARYDELAAQGQISFVTFHQSFGYEDFIEGIKPVMSGGALSYVLQDGVFLEAVRSAGGALAPAAPEAGPSTETQPLVRPDAQVWRMYIDGTAPVSRIRDLSLGRGELRMGSYGKPPRDLTQAGVEDLSGRQLLFKESVRVGDLMLLATAADRIGAVGVVTGDYRFDPHSDPTFATDYAHTRSVKWLAQDLNVGATETLGKSFAPPTLQRVADVTPAQVLQALGVSTAGGETAHAPTPRPHVLIIDEINRGNISKIFGELITLLESGKRTGAPEALTVTLPLSRRPLSVPQSLYVIGTMNTADRSLTLLDAALRRRFVFRPVWPQPEVLPVLDLGGTALDLRKFLHVINDRIERLLSREQVIGHAYLLGLPATLGGVSSALRERILPLLEEYFFEDWSKIREVLGDESKAEALQFIHRSGSGPELRYRLNPEAFENIEAFTGVYAGVSDQDFPFDA”, “failed”.
Consider “MSDAMPLDQTLEQLTQDEWIDIPQGWSQGRTIYGGLVAGLLMHKALSVMNDESKNLLSTSITFVGPVNEGRVRLTVEILRQGKSVTTIEARLWQDQAVQTILIASFGQPRSSEIFVLNLPEAPDYLSPEQFSRMPFVKMMPECYQQFDLRWAEGHYPMTQQAPDFGGWCRYDIQKHSPRALNVADLLILMDIWPPGVLPMFQTIAPASSLTWHLTFVRPVAYELHDWFKYQVVTQHAAFGYATEYAHLWDAQNRLIAISRQTVTVFA”, for which the protein production result was “failed”.
The result for “MSDAPVCERNPFLGMWSMVTRKTASGASLGAGQAITPLEAMRCYTANPARAEGQAARKGTLSPGKLADLIVLDRDPCAVDPDEIRHTQVLATLVGGQATYRAAGAPLEHHHHHH” reads “failed”; that for “MSDAQLGPLRLTLLSVSARTGFCKKQQELWQRRKEAAEALGTRKVSVLLATSHSGARPAVSTMDSSAAPTNASNCTDALAYSSCSPAPSPGSWVNLSHLDGNLSDPCGPNRTDLGGRDSLCPPTGSPSMITAITIMALYSIVCVVGLFGNFLVMYVIVRYTKMKTATNIYIFNLALADALATSTLPFQSVNYLMGTWPFGTILCKIVISIDYYNMFTSIFTLCTMSVDRYIAVCHPVKALDFRTPRNAKIINVCNWILSSAIGLPVMFMATTKYRQGSIDCTLTFSHPTWYWENLLKICVFIFAFIMPVLIITVCYGLMILRLKSVRMLSGSKEKDRNLRRITRMVLVVVAVFIVCWTPIHIYVIIKALVTIPETTFQTVSWHFCIALGYTNSCLNPVLYAFLDENFKRCFREFCIPTSSNIEQQNSTRIRQNTRDHPSTANTVDRTNHQVRSL”, “failed”.
To “MSDDEIGDGARAFNQLIQALSLSIETETAVRTFTEMLVSELDVHQLTEQALALLLQHTGADGGAILIEVDGEIRVAASQGIGSAHTLANNDRVRSALRTERRHRVQLPEDLVVDGMLAQFRPKEVIIDPVRHKEVVLGAVVLASGQGFSAEDRNRLDVFERGLALALHNALLYDRLQTLAALDPLEHHHHHH” belongs “failed”; to “MSDGPLLNDVTRAFAEAHRNEDVRDLALKTKRTADLDLPAALDQIAGWQIARNKLPQWAACADIVYPAHISMEQCSSQFTAQYKAEIARRLLRSLPQSAGQTANDATMTDLTGGFGVDFSYLARGFGHATYVERQSHLCELAAHNMAALGLTQAQVVCGDGVEYLRAMEPAQLIYIDPARRDEHGARTYAIEDCTPDVLALRDLLLAKARYVMIKLSPMLDWRKAVDDFAGTVAEVHIVSTGNECKELLLVLDGKAAGATSDAAAADTRAPHVYCVNDDQRLDYDAAAYTRGLRIGDAPLPHELRYLYEPNASIMKAGCFDVVEARFGAVQIGPSSHLFVSDEPVDGFPGRGFAIETIGGMGKKELKRLLSGLDRANIAVRNFPLTAPQLRKKLKLADGGDAYLFGTTMQGGDHVLIRTAKISR”, “failed”; to “MSDHEAGHKFLARLGKKRLRPGGRKATEWLLSQAAFRQDSVVLEVACNMGTTAMEIARRFGCKVIGADMDKAALQKAQENVAANGLASQVTIMQANALELPFPDNHFDVVINEAMLTMYADKAKSRIIAEYYRVLKPGGRLITHDIMLLSEKDTGALQAVEQMHKAINVHAQPMLRERWVTLFQECGFSKVNYDNGAMTLLTPQGLIYDEGVAGAARIVKNALKKENRSMFFNMFHTFRRNRNQLNYIAVCSTK”, “failed”.
The result for “MSDHPGSNAANPPPVPGAPALRTRRFNVSLVWLVPIVAALVGLSMVVHNSLSAGPEISISFQTAEGLEANKTQVKYKNVVIGKVTSIALSDDRKKVVAKVELDQSAEPFTADDSLFWVVRPRIGANGISGVDTLLSGAFIGADAGKSEKRKDSFKGLETPPPITYGQKGKRFTLHTDDLGSLDIGSPVYYRRIEVGQVVSYQLANSGKGVDVKIFVNSPNDKYVTTDTRFWNASGVDVTLGANGLKVNTESVSSILAGGIAFVEPKYSPNAKPADENAEYTLFGDQDTALAPPDGAPYYIRMRFDQALRGLSVNAPVEFLGVNIGKVVSMDLDYDEQRKYFPTLVGAVIYPERLGKAHEKLVKQTGGEDDVRSAKLIGAFVKNGLRAQPRSGNLLTGQLYISLDFVTNAKPVAYDATARPLEIPTVPGSMDKLQEQLQAVVDKISKLPIDSIAANLNGSLAEMQKTLKQVNGEVLPQMRDTLEQSKKTLASANESFSEDSPQRQKLGQAMEEVQRTARSVRVLSDFLGRHPEALIRGRLKDNQPDAYQSPSSSVRESVPEAQP” reads “failed”.
Take “MSDICVIIAAYNAEATIAQAVTSALAEAEVAEVVVVDDASSDATAEAALAASDGSGRLIVERQAQNGGPSAARNRAVALSQAPRIAILDADDFFLPGRFARLDPDLDLAADNIVFVTPEHAARLDPTNLPAAPREVEMLDAERFALGNLAQGVHRGELGFLKPVMSRAFLTRHGLRYDERMWLGEDFDLYMRMLLLGARFGLTRAVGYAAVQRGASLSGRHRTADLAALEACCRAHLEMPASPATQEAMRRHLRQVQAKLLLRQFLDRKAEAGLGAALGFALAPPARFLPIAKGVARDKIAALRPPAPPRAERFLLPVLEHHHHHH”: the protein production entry was “failed”.
To “MSDIHKKIKKKQFAPLYLLYGTEAFFINETIKLITTEALEEEDREFNVVTYDLEEAYLEDVVEDARTLPFFGERKVLLIKSPLFLTSQKEKLEQNIKILEEYIGEPSPFSILVFVAPYEKLDERKKITKLLKKTADIVEANAMQVQDVQKWIVARAEEGHVHIDNAAVSLLLELVGSNVTMLAKEMDKLTLYVGMGGEITPKLVAELVPKSVEQNVFALTEKVVKKDIAGAMQILDGLFTQQEEPIKLLALLVSQFRLLHQVKELQQRGYGQNQIASHIGVHPYRVKLAMNQTKFFSFEELKKVIIELAEADYSMKTGKMDKKLVLEFFLMRLNHM” belongs “failed”; to “MSDIIDEVISSFKTSSIFINREYLLPDYIPDELPHREDQIRKIASILAPLYREEKPNNIFIYGLTGTGKTAVVKFVLSKLHKKFLGKFKHVYINTRQIDTPYRVLADLLESLDVKVPFTGLSIAELYRRLVKAVRDYGSQVVIVLDEIDAFVKKYNDDILYKLSRINSEVNKSKISFIGITNDVKFVDLLDPRVKSSLSEEEIIFPPYNAEELEDILTKRAQMAFKPGVLPDNVIKLCAALAAREHGDARRALDLLRVSGEIAERMKDTKVKEEYVYMAKEEIERDRVRDIILTLPFHSKLVLMAVVSISSEENVVSTTGAVYETYLNICKKLGVEAVTQRRVSDIINELDMVGILTAKVVNRGRYGKTKEIGLAVDKNIIVRSLIESDSRFADLWS”, “failed”.
To “MSDIIHLLPDSVANQIAAGEVIQRPASVIKELVENAIDADAQNIHVLVTDAGKTCIQIIDDGKGMSETDARLSFERHATSKIREAADLFALRTMGFRGEALASIAAVAQVELKTRLESEELGTKLVIAGSKVESQEAVSCSKGSNFSVKNLFFNVPARRKFLKANSTELSNILAEFERIALVHPEVAFSLYSNDSELFNLPVSPLRQRILAIFGKKLNQQLLNIEVNTTMVKISGYIAKPETARKKGAHQYFFVNGRYMRHPYFHKAVMEAYEQLIPVGEQVSYFIYFEVDPANIDVNIHPTKTEIKFENEQAIWQILSASVKESLGKFSAIPSIDFDTEDMPDIPAFEQNLPPAPPKIHYNSDFNPFKVSSGGSGGGSYSRPKVEWEGLYGGLTKASKMNEPQQEPEMDWENSPFEEEPMVAEEKTISAVSAASSTFSSASSTLYANESVIEKGNLHLQFKGRFILTSVKSGLMLIDQHRAHIRVLFDRYMVQIKQKQGVSQGVLFPEILQLPASEAAVLQGIMDDLSAVGFDLSDLGGGSYAINGIPSGIEGLNPVELVRNMLHTAMEKGNDVKEEIQNILALTLARAAAIVYGQVLSNEEMVSLVDSLFACPSPNYTPDGKTVLTTIKEEDIEKLFK” belongs “failed”; to “MSDILYSLLISAFLGLAHGLDADHIANVRIFKSVKKIFEFSLFHSAGFLIIAIPLSLLSLVTILEFPLLITSYSIGLLVSGLLLYGTVKGKELEIEPKRFGLLQGALVISPSKLIVLILALASESIFYAVLILLVFIVTSIISFMIFSLLNLIPKRFDKIVNIVISLGSIIYILYELITTLMSMH”, “failed”.

Source of the values: a protein production outcome set (Wang et al. 2014).
